Where two headings read alike, the source gives them in different places.
B1: 107F11F10 (antibody, V domains shown)
VH: EVQLQQSGAEFVKPGASVKLSCTASGFNIEDTYMHWVKQRPEQGLEWIGMIDPANGKTKYGPRFQDKATVTADTSSNTANLQLSSLTSEDTAVYYCADGIGYYVGAMDYWGQGTSVTVSS
VL: DIQMNQSPSSLSASLGDTITITCHASQNINVWLSWYQQKPGNIPKLLIYKASNLHTGVPSRFSGSGSGTGFTLTISSLQPEDIATYYCQQGHSYPYTFGGGTKLEIK
notes: purified murine anti-CD47 hybridoma antibody; same VH and VL as 107F11B11 and 107F11C4
B2: 108VH4.M4_VL1.M1-hIgG4PE (antibody)
heavy: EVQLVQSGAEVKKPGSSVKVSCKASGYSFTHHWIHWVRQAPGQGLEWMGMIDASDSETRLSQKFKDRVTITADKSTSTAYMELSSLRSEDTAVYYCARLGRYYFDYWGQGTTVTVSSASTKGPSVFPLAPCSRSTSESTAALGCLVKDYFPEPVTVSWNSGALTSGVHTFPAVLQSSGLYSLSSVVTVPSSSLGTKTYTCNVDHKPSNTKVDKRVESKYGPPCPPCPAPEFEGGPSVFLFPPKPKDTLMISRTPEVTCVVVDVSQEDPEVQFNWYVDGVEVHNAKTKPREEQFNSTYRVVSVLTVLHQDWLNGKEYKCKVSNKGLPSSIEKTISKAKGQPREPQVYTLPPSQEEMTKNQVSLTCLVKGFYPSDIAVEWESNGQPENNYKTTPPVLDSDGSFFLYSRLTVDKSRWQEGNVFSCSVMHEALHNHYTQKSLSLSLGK
light: EIVLTQSPATLSLSPGERATLSCRASENVGTYISWYQQKPGQAPRLLIYGASNRYTGIPARFSGSGSGTDFTLTISSLEPEDFAVYYCGESYGHLYTFGGGTKVEIKRTVAAPSVFIFPPSDEQLKSGTASVVCLLNNFYPREAKVQWKVDNALQSGNSQESVTEQDSKDSTYSLSSTLTLSKADYEKHKVYACEVTHQGLSSPVTKSFNRGEC
notes: also called 108VH4.M4_VL1.M1-hlgG4PE; 108VH4.M4_VL1.M1-hIgG4PE-Ka
B3: 108C10A6_Chimeric hIgG1 (antibody, V domains shown)
VH: QMQLQQSGPQLVRPGASVKISCKTSGYSFTHHWIHWMKQRPGQGLEWIGMIDPSDSETRLSQKFKDKATLTVDASSSTAYMQLNSPTSEDSALYFCARLGRYYFDYWGQGTTLTVSS
VL: NIVMTQSPRSMSMSVGERVTLSCKASENVGTYISWYQQKPDQSPKLLIYGASNRYTGVPDRFTGSGSGTDFTLTISTVQAEDLADYHCGESYGHLYTFGGGTKLEIKR
notes: also called CD47-108C10A6_Chimeric huIgG1; chimeric 108C10A6
B4: B6H12 (antibody, V domains shown)
VH: EVQLVESGGDLVKPGGSLKLSCAASGFTFSGYGMSWVRQTPDKRLEWVATITSGGTYTYYPDSVKGRFTISRDNAKNTLYLQIDSLKSEDTAIYFCARSLAGNAMDYWGQGTSVTVSS
VL: DIVMTQSPATLSVTPGDRVSLSCRASQTISDYLHWYQQKSHESPRLLIKFASQSISGIPSRFSGSGSGSDFTLSINSVEPEDVGVYYCQNGHGFPRTFGGGTKLEIK

Experiments:
human CD47 on cells [1] = target: T1, human CD47 on cells (human, UniProt Q08722 19-323); test: flow cytometry on human red blood cells
T1 construct: also called CHO-K1/huCD47; human CD47 over-expressed in CHO-K1 cells

human CD47 on cells [2] = target: T1, human CD47 on cells; test: flow cytometry, blocking of human SIRPα binding to CHO-K1/huCD47 cells; the box on the sheet is labelled EC50; unit taken from the axis
Description: After 30 minutes incubation at 4° C., cells were washed twice with FACS buffer.

[3] = target: T2, cynomolgus monkey CD47 on CHO-K1 cells (cynomolgus monkey, UniProt A0A5F8AK49 19-323 (rhesus entry)); test: flow cytometry on CHO-K1/cyno CD47 cells; unit taken from the axis
T2 construct: whole, on cells; also called CHO-K1/cyno CD47; CHO-K1/cynoCD47
Description: (§1) Briefly, binding to cell-expressed cyno CD47 was evaluated on cynomolgus monkey CD47 over-expressing CHO cells. Anti-CD47 antibody dilution series was prepared in FACS buffer. CHO-K1/cynomolgus monkey CD47 cell were transferred to a 96-well U-bottom plate and add CD47 antibody dilution. After 30 minutes incubation at 4° C., cells were washed twice with FACS buffer. […] The cells were washed twice with wash buffer, and then analyzed for binding by using FACSCalibur (BD Bioscience, San Jose, Calif.) and Flowjo software.

[4] = target: T2, cynomolgus monkey CD47 on CHO-K1 cells; test: as above; remark: listed apart in the source
Description: as §1

human CD47 on cells [5] = target: T1, human CD47 on cells; test: flow cytometry on red blood cells; unit taken from the axis
human CD47 on cells [6] = target: T1, human CD47 on cells; test: flow cytometry on CHO-K1/huCD47 cells; unit taken from the axis
Description: Binding to cell-expressed human CD47 was evaluated on human CD47 over-expressing CHO cells (GenScript, Cat #M00581). Anti-CD47 antibody dilution series was prepared in FACS buffer. CHO-K1/human CD47 cells were transferred to a 96-well U-bottom plate and anti-CD47 antibody dilution was added. […] The cells were then washed twice with wash buffer. Cells were analyzed for binding by FACSCalibur (BD Bioscience, San Jose, Calif.) and Flowjo software.

[7] = target: T2, cynomolgus monkey CD47 on CHO-K1 cells; test: flow cytometry on CHO-K1/cynoCD47 cells; unit taken from the axis
Description: as §1

human CD47-His protein = target: T3, human CD47-His protein (human, UniProt Q08722 19-139, limits assumed); test: SPR (Biacore T200), antibody captured, human CD47-His as analyte, 1:1 model
T3 construct: It includes the signal peptide and the membrane-spanning region, which a soluble protein would lack; not shown: His tag

human CD47 on cells [8] = target: T1, human CD47 on cells; test: flow cytometry, blocking of human SIRPα binding to CHO-K1/huCD47 cells
human CD47 on cells [9] = target: T1, human CD47 on cells; test: flow cytometry on red blood cells
human CD47 on cells [10] = target: T1, human CD47 on cells; test: flow cytometry, blocking of human SIRPα binding to CHO-K1/huCD47 cells; the box on the sheet is labelled EC50; unit taken from the axis; remark: listed apart in the source
human CD47 on cells [11] = target: T1, human CD47 on cells; test: flow cytometry, blocking of human SIRPα binding to CHO-K1/huCD47 cells; B6H12 is the positive control
human CD47 on cells [12] = target: T1, human CD47 on cells; test: flow cytometry on CHO-K1/huCD47 cells (FL2-H channel); unit taken from the axis

Row | Binder | EC50 (read off the curve) (human CD47 on cells [1]) [µg/mL] | IC50 (human CD47 on cells [2]) [nM] | EC50 [3] [nM] | EC50 [4] [nM] | EC50 (human CD47 on cells [5]) [nM] | EC50 (human CD47 on cells [6]) [nM] | EC50 [7] [nM] | Kd (human CD47-His protein) [nM] | koff (human CD47-His protein) [s⁻¹] | kon (human CD47-His protein) [M⁻¹ s⁻¹] | IC50 (read off the curve) (human CD47 on cells [8]) [nM] | EC50 (read off the curve) (human CD47 on cells [9]) [nM] | IC50 (human CD47 on cells [10]) [nM] | IC50 (read off the curve) (human CD47 on cells [11]) [nM] | EC50 (human CD47 on cells [12]) [nM]
1 | B1 | ~0.01 | 1.08 | 0.931 | 0.931 | – | – | – | – | – | – | – | – | – | – | –
2 | B2 | – | – | – | – | 3.18 | 0.586 | 0.477 | 1.5 | 0.00046 | 310000 | ~1 | – | – | – | –
3 | B3 | – | – | – | – | – | 0.551 | 0.491 | – | – | – | – | ~3 | 1.42 | – | –
4 | B4 | – | – | 13.3 | 13.3 | 7.74 | – | – | – | – | – | – | – | 5.4 | ~6 | 2.31
